This note sets out measurements from patent US20260176352A1 (BIRD ROCK BIO, published 2026).

Values joined by “and” are separate entries in the source; they are usually repeats but may differ in a detail not shown here. Equal values may be shown once.

For test [1], the target named is T1, native full length human CB1 receptor (cannabinoid 1 receptor) (human, UniProt P21554 1-472). The experiment in a line: cell-based or functional assay.
For test [2], the target named is T1, native full length human CB1 receptor …. The experiment in a line: flow cytometry, TRex-CHO full length native human CB1 cells; mean. How it is done: (§1) After being washed with 200 μL of FACS buffer twice, cells were incubated with secondary antibody for 30 minutes on ice. Cells were washed with 200 μL of FACS buffer twice and transferred to BD Falcon 5 mL tube and analyzed by FACS. Data analysis and measurement of binding affinity (KD) was performed using GraphPad Prism software.
(In general: Flow cytometry measures light scatter and fluorescence of single cells or particles in a stream.)

The target is the same in test [3]. The experiment in a line: flow cytometry, TRex-CHO full length native human CB1 cells; Exp 1. How it is done: as §1
The target is the same in test [4]. The experiment in a line: flow cytometry, TRex-CHO full length native human CB1 cells; Exp 2. On the procedure:
as §1

The target is the same in test [5]. The experiment in a line: flow cytometry on TRex-CHO cells stably transfected with tetracycline inducible CB1, FITC-conjugated anti-human antibody [panel A].
The target is the same in test [6]. The experiment in a line: cell-based or functional assay. The source holds these as a separate data set.
Test [7] shares this target. The experiment in a line: flow cytometry, Fab on TRex-CHO human CB1 cells.
The target is the same in test [8]. The experiment in a line: flow cytometry, TRex-CHO human CB1 cells; mean of batch 1. On the procedure: (§2) TRex CHO parental cells, and TRex-CHO cells stably transfected with tetracycline inducible human CB1, human CB2 or mouse CB1 expression constructs were harvested. […] Cells were then centrifuged at 4° C. at 1600 rpm for 3 minutes; supernatant was aspirated and cells were washed with 200 μL FACS buffer. The washing procedure was repeated twice. After the final wash, cells were re-suspended in FACS buffer containing PE-conjugated anti-human Fc secondary antibody (1:200 dilutions) and incubated at 4° C. for 30 minutes. Cells were washed with 200 μL FACS buffer twice and analyzed by flow cytometry (Guava). Data analysis and measurement of binding affinity (KD) was performed using GraphPad Prism software.

Test [9] shares this target. The experiment in a line: cell-based or functional assay. This is another data set of the same source.
The target in the next test is T2, human CB2 (human, UniProt P34972 1-360).
T2 construct: whole, on cells; also called TRexCHO Human CB2
The experiment in a line: flow cytometry on TRex-CHO human CB2 cells, middle panel. On the procedure: (§3) After being washed with 200 μl of FACS buffer twice, cells were incubated with PE conjugated anti-human secondary antibody (Southern Biotech) for 30 minutes on ice. Cells were washed with 200 μl of FACS buffer twice and transferred to BD Falcon 5 ml tube and analyzed by flow cytometry (BD FACScalibur).

The target of test [10] is T1, native full length human CB1 receptor …. The experiment in a line: flow cytometry, TRexCHO A156 cells. How it is done:
as §3

The target is the same in test [11]. The experiment in a line: flow cytometry on TRex-CHO cells with tetracycline inducible human CB1. On the procedure: as §2
Test [12] shares this target. The experiment in a line: flow cytometry, TRex-CHO human CB1 cells; mean of batch 3. On the procedure:
as §2

Test [13] has the same target. The experiment in a line: cell-based or functional assay. This is another data set of the same source.
For test [14] the target is unchanged. The experiment in a line: flow cytometry, TRex-CHO human CB1 cells; mean of batch 2. On the procedure:
as §2

In another test the target is T3, mouse CB1 (mouse, UniProt P47746 1-473).
T3 construct: whole, on cells; also called TRexCHO Mouse CB1
The experiment in a line: flow cytometry on TRex-CHO mouse CB1 cells, lower panel. How it is done: as §3

The target in test [15] is T1, native full length human CB1 receptor …. The experiment in a line: flow cytometry, TRex-CHO human CB1 cells; mean ± SD. On the procedure: as §2
The target of test [16] is T4, TRex CHO A56 over-expressed CB1 (CB1 T210A/fusion partner) (UniProt P21554 1-472).
T4 construct: whole, on cells; The fusion partner stands inside the CB1 chain in place of ICL3, not at its end; also called Trex-CHO CB1 T210A/fusion partner; not shown: fusion partner that replaces ICL3
The experiment in a line: flow cytometry, TRexCHO A56 cells. On the procedure:
as §3

Test [17] concerns the target T1, native full length human CB1 receptor …. The experiment in a line: cell-based or functional assay. This is another data set of the same source.

In general, Kd refers to the concentration at which binding is half-saturated. High values mean a looser complex, low ones a tighter complex. By EC50 (read off the curve) is commonly meant the midpoint of the concentration-response curve. A lower EC50 (read off the curve) goes with greater potency.

T2 sequence (P34972 whole entry): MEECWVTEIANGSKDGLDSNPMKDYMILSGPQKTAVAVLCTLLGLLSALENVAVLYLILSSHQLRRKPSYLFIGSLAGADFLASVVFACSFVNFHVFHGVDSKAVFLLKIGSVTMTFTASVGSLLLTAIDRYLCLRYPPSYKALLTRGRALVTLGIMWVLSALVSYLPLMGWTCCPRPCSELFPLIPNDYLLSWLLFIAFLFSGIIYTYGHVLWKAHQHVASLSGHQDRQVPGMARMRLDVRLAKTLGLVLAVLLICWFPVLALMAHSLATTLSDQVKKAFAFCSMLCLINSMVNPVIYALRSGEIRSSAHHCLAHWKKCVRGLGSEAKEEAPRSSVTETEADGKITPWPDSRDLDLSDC
T3 sequence (P47746 whole entry): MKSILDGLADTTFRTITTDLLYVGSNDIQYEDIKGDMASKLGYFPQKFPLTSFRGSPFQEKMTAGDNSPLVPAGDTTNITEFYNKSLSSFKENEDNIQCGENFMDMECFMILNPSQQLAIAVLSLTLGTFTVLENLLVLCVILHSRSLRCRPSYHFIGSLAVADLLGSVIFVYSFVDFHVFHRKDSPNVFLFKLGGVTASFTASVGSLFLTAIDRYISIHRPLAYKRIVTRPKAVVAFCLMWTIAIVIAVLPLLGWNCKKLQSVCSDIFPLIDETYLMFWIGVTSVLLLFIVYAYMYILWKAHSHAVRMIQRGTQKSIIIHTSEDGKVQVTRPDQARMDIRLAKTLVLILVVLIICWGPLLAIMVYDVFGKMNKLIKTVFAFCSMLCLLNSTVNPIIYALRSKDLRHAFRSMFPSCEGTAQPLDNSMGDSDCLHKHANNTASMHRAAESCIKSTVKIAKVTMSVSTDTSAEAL

B1: RY-LC-B12 FACS3 (IgG4 S228P) (antibody, V domains shown)
VH: QVQLVQSGAEVKKPGSSVKVSCKASGYEFSYYWMNWVRQAPGQGLEWMGQIYPGDGETKYAQKFQGRVTITADKSTSTAYMELSSLRSEDTAVYYCARSHGNYLPYWGQGTLVTVSS
VL: EIVLTQSPATLSLSPGERATLSCRASQSVSSRYLHWYQQKPGQAPRLLIYSTSRLASGIPARFSGSGSGTDFTLTISRLEPEDFAVYYCQQYHRSPPTFGQGTKVEIKR
On to B1, for which, in test [1], the “Exp 1 IC50 (nM), cAMP antagonist assay” value amounted to 40.9 nM; the “Exp 2 IC50 (nM), cAMP antagonist assay” value came out at 32.9 nM; the “Exp 3 IC50 (nM), cAMP antagonist assay” value was 39.7 nM. Moreover, in test [2], the Kd worked out at 8.82 nM. This molecule also displayed a Kd in test [3] of 8.75 nM. This molecule yielded a Kd in [4] of 8.89 nM.

B2: P1C4-h2 Fab (Fab, V domains shown)
VH: QVQLVQSGAEVKKPGSSVKVSCKASGYEFSYYWMNWVRQAPGQGLEWMGQIYPGDGETKYAQKFQGRVTITADKSTSTAYMELSSLRSEDTAVYYCARSHGNYLPYWGQGTLVTVSS
VL: EIVLTQSPATLSLSPGERATLSCRASQSVSSSYLHWYQQKPGQAPRLLIYSTSNLASGIPARFSGSGSGTDFTLTISRLEPEDFAVYYCHQYHRSPPTFGQGTKVEIK
notes: Fab; constant parts not described; also called humanized P1C4 Fab h2
Regarding B2, the “EC50 (read off the curve)” value in test [5] was in the range of 10 to 20 nM. The “IC50 cAMP assay” value in test [6] amounted to 52 nM. This molecule registered a Kd in test [7] of 14 nM.

B3: P1C4-h0-IgG1 (antibody, V domains shown)
VH: QVQLVQSGAEVKKPGSSVKVSCKASGGTFSYYWMNWVRQAPGQGLEWMGQIYPGDGETKYAQKFQGRVTITADKSTSTAYMELSSLRSEDTAVYYCARSHGNYLPYWGQGTLVTVSS
VL: EIVLTQSPATLSLSPGERATLSCRASQSVSSSYLHWYQQKPGQAPRLLIYSTSNLASGIPARFSGSGSGTDFTLTISRLEPEDFAVYYCHQYHRSPPTFGQGTKVEIKR
notes: also called P1C4-H0 No mutation; PA12R3-P1C4 HO (no back mutation)
Take B3: the Kd was 23 nM in [8]; 25 nM in test [10]; 24 nM in [12]; 24 nM in test [14]; 24 nM in test [15]; 4.5 nM in test [16]. For the same molecule, the “IC50 (nM), cAMP assay” value in [9] was 146 nM. The binding result with human CB2 and with mouse CB1 was “no binding (tested: about 300 nM (last point))” each time. For the same molecule, the “EC50 (read off the curve)” value in test [11] was ~10 nM and ~20 nM. Moreover, the “cAMP IC50 (nM) Mean of Batch 1 [n]” value in test [13] stood at 158 nM. For the same molecule, in test [13], the “cAMP IC50 (nM) Mean of Batch 2 [n]” value came out at 343 nM.

B4: P1C4-h4 Fab (Fab, V domains shown)
VH: QVQLVQSGAEVKKPGSSVKVSCKASGYEFSYYWMNWVRQAPGQGLEWMGQIYPGDGETKYNGKFQGRVTITADKSTSTAYMELSSLRSEDTAVYYCARSHGNYLPYWGQGTLVTVSS
VL: EIVLTQSPATLSLSPGERATLSCRASQSVSSSYLHWYQQKPGQAPRLLIYSTSNLASGIPARFSGSGSGTDFTLTISRLEPEDFAVYYCHQYHRSPPTFGQGTKVEIK
notes: Fab; constant parts not described; also called humanized P1C4 Fab h4
As for B4, the “EC50 (read off the curve)” value in [5] is approximately 20 nM. Besides, the “IC50 cAMP assay” value in test [6] came out at 43 nM. For the same molecule, the “IC50 (read off the curve), cAMP assay [panel B]” value in test [17] was approximately 40 nM. This molecule yielded a Kd in test [7] of 16.2 nM.
